B1: sp¦O43719¦HTSF1_HUMAN (protein, UniProt O43719 2-755, looked up)
17S U2 SnRNP complex …: SGTNLDGNDEFDEQLRMQELYGDGKDGDTQTDAGGEPDSLGQQPTDTPYEWDLDKKAWFPKITEDFIATYQANYGFSNDGASSSTANVEDVHARTAEEPPQEKAPEPTDARKKGEKRKAESGWFHVEEDRNTNVYVSGLPPDITVDEFIQLMSKFGIIMRDPQTEEFKVKLYKDNQGNLKGDGLCCYLKRESVELALKLLDEDEIRGYKLHVEVAKFQLKGEYDASKKKKKCKDYKKKLSMQQKQLDWRPERRAGPSRMRHERVVIIKNMFHPMDFEDDPLVLNEIREDLRVECSKFGQIRKLLLFDRHPDGVASVSFRDPEEADYCIQTLDGRWFGGRQITAQAWDGTTDYQVEETSREREERLRGWEAFLNAPEANRGLRRSDSVSASERAGPSRARHFSEHPSTSKMNAQETATGMAFEEPIDEKKFEKTEDGGEFEEGASENNAKESSPEKEAEEGCPEKESEEGCPKRGFEGSCSQKESEEGNPVRGSEEDSPKKESKKKTLKNDCEENGLAKESEDDLNKESEEEVGPTKESEEDDSEKESDEDCSEKQSEDGSEREFEENGLEKDLDEEGSEKELHENVLDKELEENDSENSEFEDDGSEKVLDEEGSEREFDEDSDEKEEEEDTYEKVFDDESDEKEDEEYADEKGLEAADKKAEEGDADEKLFEESDDKEDEDADGKEVEDADEKLFEDDDSNEKLFDEEEDSSEKLFDDSDERGTLGGFGSVEEGPLSTGSSFILSSDDDDDDI
B2: sp¦Q8IX12¦CCAR1_HUMAN (protein, UniProt Q8IX12 1-1150, looked up)
Cell division cycle and …: MAQFGGQKNPPWATQFTATAVSQPAALGVQQPSLLGASPTIYTQQTALAAAGLTTQTPANYQLTQTAALQQQAAAAAAALQQQYSQPQQALYSVQQQLQQPQQTLLTQPAVALPTSLSLSTPQPTAQITVSYPTPRSSQQQTQPQKQRVFTGVVTKLHDTFGFVDEDVFFQLSAVKGKTPQVGDRVLVEATYNPNMPFKWNAQRIQTLPNQNQSQTQPLLKTPPAVLQPIAPQTTFGVQTQPQPQSLLQAQISAASITPLLQTQPQPLLQQPQQKAGLLQPPVRIVSQPQPARRLDPPSRFSGRNDRGDQVPNRKDDRSRERERERRRSRERSPQRKRSRERSPRRERERSPRRVRRVVPRYTVQFSKFSLDCPSCDMMELRRRYQNLYIPSDFFDAQFTWVDAFPLSRPFQLGNYCNFYVMHREVESLEKNMAILDPPDADHLYSAKVMLMASPSMEDLYHKSCALAEDPQELRDGFQHPARLVKFLVGMKGKDEAMAIGGHWSPSLDGPDPEKDPSVLIKTAIRCCKALTGIDLSVCTQWYRFAEIRYHRPEETHKGRTVPAHVETVVLFFPDVWHCLPTRSEWETLSRGYKQQLVEKLQGERKEADGEQDEEEKDDGEAKEISTPTHWSKLDPKTMKVNDLRKELESRALSSKGLKSQLIARLTKQLKVEEQKEEQKELEKSEKEEDEDDDRKSEDDKEEEERKRQEEIERQRRERRYILPDEPAIIVHPNWAAKSGKFDCSIMSLSVLLDYRLEDNKEHSFEVSLFAELFNEMLQRDFGVRIYKSLLSLPEKEDKKEKDKKSKKDERKDKKEERDDETDEPKPKRRKSGDDKDKKEDRDERKKEDKRKDDSKDDDETEEDNNQDEYDPMEAEEAEDEEDDRDEEEMTKRDDKRDINRYCKERPSKDKEKEKTQMITINRDLLMAFVYFDQSHCGYLLEKDLEEILYTLGLHLSRAQVKKLLNKVVLRESCFYRKLTDTSKDEENHEESESLQEDMLGNRLLLPTPTVKQESKDVEENVGLIVYNGAMVDVGSLLQKLEKSEKVRAEVEQKLQLLEEKTDEDEKTILNLENSNKSLSGELREVKKDLSQLQENLKISENMNLQFENQMNKTIRNLSTVMDEIHTVLKKDNVKNEDKDQKSKENGASV
B3: sp¦Q9BX68¦HINT2_HUMAN (protein, UniProt Q9BX68 18-163, looked up)
Adenosine …: VAATGVRGGQVRGAAGVTDGNEVAKAQQATPGGAAPTIFSRILDKSLPADILYEDQQCLVFRDVAPQAPVHFLVIPKKPIPRISQAEEEDQQLLGHLLLVAKQTAKAEGLGDGYRLVINDGKLGAQSVYHLHIHVLGGRQLQWPPG
B4: sp¦P53618¦COPB_HUMAN (protein, UniProt P53618 2-953, looked up)
Coatomer subunit beta: TAAENVCYTLINVPMDSEPPSEISLKNDLEKGDVKSKTEALKKVIIMILNGEKLPGLLMTIIRFVLPLQDHTIKKLLLVFWEIVPKTTPDGRLLHEMILVCDAYRKDLQHPNEFIRGSTLRFLCKLKEAELLEPLMPAIRACLEHRHSYVRRNAVLAIYTIYRNFEHLIPDAPELIHDFLVNEKDASCKRNAFMMLIHADQDRALDYLSTCIDQVQTFGDILQLVIVELIYKVCHANPSERARFIRCIYNLLQSSSPAVKYEAAGTLVTLSSAPTAIKAAAQCYIDLIIKESDNNVKLIVLDRLIELKEHPAHERVLQDLVMDILRVLSTPDLEVRKKTLQLALDLVSSRNVEELVIVLKKEVIKTNNVSEHEDTDKYRQLLVRTLHSCSVRFPDMAANVIPVLMEFLSDNNEAAAADVLEFVREAIQRFDNLRMLIVEKMLEVFHAIKSVKIYRGALWILGEYCSTKEDIQSVMTEIRRSLGEIPIVESEIKKEAGELKPEEEITVGPVQKLVTEMGTYATQSALSSSRPTKKEEDRPPLRGFLLDGDFFVAASLATTLTKIALRYVALVQEKKKQNSFVAEAMLLMATILHLGKSSLPKKPITDDDVDRISLCLKVLSECSPLMNDIFNKECRQSLSHMLSAKLEEEKLSQKKESEKRNVTVQPDDPISFMQLTAKNEMNCKEDQFQLSLLAAMGNTQRKEAADPLASKLNKVTQLTGFSDPVYAEAYVHVNQYDIVLDVLVVNQTSDTLQNCTLELATLGDLKLVEKPSPLTLAPHDFANIKANVKVASTENGIIFGNIVYDVSGAASDRNCVVLSDIHIDIMDYIQPATCTDAEFRQMWAEFEWENKVTVNTNMVDLNDYLQHILKSTNMKCLTPEKALSGYCGFMAANLYARSIFGEDALANVSIEKPIHQGPDAAVTGHIRIRAKSQGMALSLGDKINLSQKKTSI
B5: sp¦Q9BUQ8¦DDX23_HUMAN (protein, UniProt Q9BUQ8 1-820, looked up)
Probable ATP-dependent RNA …: MAGELADKKDRDASPSKEERKRSRTPDRERDRDRDRKSSPSKDRKRHRSRDRRRGGSRSRSRSRSKSAERERRHKERERDKERDRNKKDRDRDKDGHRRDKDRKRSSLSPGRGKDFKSRKDRDSKKDEEDEHGDKKPKAQPLSLEELLAKKKAEEEAEAKPKFLSKAEREAEALKRRQQEVEERQRMLEEERKKRKQFQDLGRKMLEDPQERERRERRERMERETNGNEDEEGRQKIREEKDKSKELHAIKERYLGGIKKRRRTRHLNDRKFVFEWDASEDTSIDYNPLYKERHQVQLLGRGFIAGIDLKQQKREQSRFYGDLMEKRRTLEEKEQEEARLRKLRKKEAKQRWDDRHWSQKKLDEMTDRDWRIFREDYSITTKGGKIPNPIRSWKDSSLPPHILEVIDKCGYKEPTPIQRQAIPIGLQNRDIIGVAETGSGKTAAFLIPLLVWITTLPKIDRIEESDQGPYAIILAPTRELAQQIEEETIKFGKPLGIRTVAVIGGISREDQGFRLRMGCEIVIATPGRLIDVLENRYLVLSRCTYVVLDEADRMIDMGFEPDVQKILEHMPVSNQKPDTDEAEDPEKMLANFESGKHKYRQTVMFTATMPPAVERLARSYLRRPAVVYIGSAGKPHERVEQKVFLMSESEKRKKLLAILEQGFDPPIIIFVNQKKGCDVLAKSLEKMGYNACTLHGGKGQEQREFALSNLKAGAKDILVATDVAGRGIDIQDVSMVVNYDMAKNIEDYIHRIGRTGRAGKSGVAITFLTKEDSAVFYELKQAILESPVSSCPPELANHPDAQHKPGTILTKKRREETIFA
B6: sp¦Q8WZA0¦LZIC_HUMAN (protein, UniProt Q8WZA0 1-190, looked up)
Protein LZIC: MASRGKTETSKLKQNLEEQLDRLMQQLQDLEECREELDTDEYEETKKETLEQLSEFNDSLKKIMSGNMTLVDELSGMQLAIQAAISQAFKTPEVIRLFAKKQPGQLRTRLAEMDRDLMVGKLERDLYTQQKVEILTALRKLGEKLTADDEAFLSANAGAILSQFEKVSTDLGSGDKILALASFEVEKTKK
B7: sp¦Q9HAV4¦XPO5_HUMAN (protein, UniProt Q9HAV4 2-1204, looked up)
Exportin-5: AMDQVNALCEQLVKAVTVMMDPNSTQRYRLEALKFCEEFKEKCPICVPCGLRLAEKTQVAIVRHFGLQILEHVVKFRWNGMSRLEKVYLKNSVMELIANGTLNILEEENHIKDALSRIVVEMIKREWPQHWPDMLIELDTLSKQGETQTELVMFILLRLAEDVVTFQTLPPQRRRDIQQTLTQNMERIFSFLLNTLQENVNKYQQVKTDTSQESKAQANCRVGVAALNTLAGYIDWVSMSHITAENCKLLEILCLLLNEQELQLGAAECLLIAVSRKGKLEDRKPLMVLFGDVAMHYILSAAQTADGGGLVEKHYVFLKRLCQVLCALGNQLCALLGADSDVETPSNFGKYLESFLAFTTHPSQFLRSSTQMTWGALFRHEILSRDPLLLAIIPKYLRASMTNLVKMGFPSKTDSPSCEYSRFDFDSDEDFNAFFNSSRAQQGEVMRLACRLDPKTSFQMAGEWLKYQLSTFLDAGSVNSCSAVGTGEGSLCSVFSPSFVQWEAMTLFLESVITQMFRTLNREEIPVNDGIELLQMVLNFDTKDPLILSCVLTNVSALFPFVTYRPEFLPQVFSKLFSSVTFETVEESKAPRTRAVRNVRRHACSSIIKMCRDYPQLVLPNFDMLYNHVKQLLSNELLLTQMEKCALMEALVLISNQFKNYERQKVFLEELMAPVASIWLSQDMHRVLSDVDAFIAYVGTDQKSCDPGLEDPCGLNRARMSFCVYSILGVVKRTCWPTDLEEAKAGGFVVGYTSSGNPIFRNPCTEQILKLLDNLLALIRTHNTLYAPEMLAKMAEPFTKALDMLDAEKSAILGLPQPLLELNDSPVFKTVLERMQRFFSTLYENCFHILGKAGPSMQQDFYTVEDLATQLLSSAFVNLNNIPDYRLRPMLRVFVKPLVLFCPPEHYEALVSPILGPLFTYLHMRLSQKWQVINQRSLLCGEDEAADENPESQEMLEEQLVRMLTREVMDLITVCCVSKKGADHSSAPPADGDDEEMMATEVTPSAMAELTDLGKCLMKHEDVCTALLITAFNSLAWKDTLSCQRTTSQLCWPLLKQVLSGTLLADAVTWLFTSVLKGLQMHGQHDGCMASLVHLAFQIYEALRPRYLEIRAVMEQIPEIQKDSLDQFDCKLLNPSLQKVADKRRKDQFKRLIAGCIGKPLGEQFRKEVHIKNLPSLFKKTKPMLETEVLDNDGGGLATIFEP

Tested on: human HL60 cells
Assay: SWATH-MS proteomics, differential protein representation, akirin2 KO vs WT HL60 cells
Format: cell-based
Settings: akirin2 KO vs WT HL60 cells; sheet "Under-represented in KO"
Outline: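 Read-out is label-free SWATH-MS protein area, globally normalized to total detected-protein area, with identifications held at 1% FDR against a library from information-dependent acquisition.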

Molecule	Fold Change	Log (Fold Change)
B1	0.1732	-0.7615
B2	0.4166	-0.3803
B3	0.4303	-0.3662
B4	0.4243	-0.3723
B5	0.4207	-0.376
B6	0.433	-0.3635
B7	0.4142	-0.3828

Source: publication PMC8298264, “Function of cofactor Akirin2 in the regulation of gene expression in model human neutrophil-like HL60 cells” (Bioscience Reports, 2021)
